The record followed here is the Immune Epitope Database (IEDB).

One experiment deals with HLA-A*02:16. Description: IEDB peptide-MHC binding, purified MHC/direct/fluorescence; filed as Kd, often an IC50 or EC50 that approximates it; ≥ and ≤ were set here for values at or beyond the usual limits of such assays. The note with it: source organism: Vibrio vulnificus CMCP6.
For experiment [1], the target named is HLA-B*57:01. The experiment is described as above.
The target in the next experiment is HLA-A*02:11. The description is as above.
For a further experiment, the target named is HLA-B*46:01. The description is as above.
Another experiment addresses HLA-B*35:01. The description is as above.
In another experiment the target is HLA-A*02:19. The description is as above.
A further experiment has as its target HLA-A*02:03. The experiment is described as above.
A further experiment has as its target HLA-A*02:12. The description is as above.
A further experiment deals with HLA-B*15:01. Described as above.
The target of a further experiment is HLA-A*24:03. Described as above.
The next experiment addresses HLA-B*07:02. The experiment is described as above.
Another experiment concerns the target HLA-A*02:01. Described as above.
For another experiment, the target named is HLA-A*26:01. The description is as above.
A further experiment has as its target HLA-A*03:01. The description is as above.
For another experiment, the target named is HLA-B*18:01. Described as above.
The target in another experiment is HLA-B*27:03. The experiment is described as above.
Experiment [2] concerns the target HLA-B*57:01. Kind of experiment: IEDB peptide-MHC binding, purified MHC/competitive/radioactivity; filed as Kd, often an IC50 or EC50 that approximates it; ≥ and ≤ were set here for values at or beyond the usual limits of such assays.
The next experiment deals with HLA-A*02:06. Kind of experiment: IEDB peptide-MHC binding, purified MHC/competitive/fluorescence; filed as Kd, often an IC50 or EC50 that approximates it; ≥ and ≤ were set here for values at or beyond the usual limits of such assays. The note with it: source organism: Francisella tularensis subsp. tularensis FSC198.
The target in the next experiment is HLA-A*68:02. Kind of experiment: IEDB peptide-MHC binding, purified MHC/direct/fluorescence; filed as Kd, often an IC50 or EC50 that approximates it; ≥ and ≤ were set here for values at or beyond the usual limits of such assays.
The next experiment has as its target HLA-B*15:09. The experiment is described as above. The following applies: source organism: Francisella tularensis subsp. tularensis FSC033.
In a further experiment the target is HLA-A*11:01. Described as above.
The next experiment addresses HLA-A*01:01. Described as above.
In the next experiment the target is HLA-A*69:01. The experiment is described as above.
The next experiment has as its target HLA-B*15:17. The experiment is described as above.
The target in a further experiment is HLA-B*08:03. The description is as above.
The target in the next experiment is HLA-B*08:02. The experiment is described as above. The following applies: source organism: Francisella tularensis subsp. tularensis FSC033.
Experiment [3] deals with HLA-B*58:01. Described as above.
The target in the next experiment is HLA-B*51:01. Described as above.
A further experiment has as its target HLA-B*39:01. Described as above.
For experiment [4], the target named is HLA-B*58:01. Kind of experiment: IEDB peptide-MHC binding, purified MHC/competitive/radioactivity; filed as Kd, often an IC50 or EC50 that approximates it; ≥ and ≤ were set here for values at or beyond the usual limits of such assays.
The next experiment deals with HLA-B*40:01. Kind of experiment: IEDB peptide-MHC binding, purified MHC/direct/fluorescence; filed as Kd, often an IC50 or EC50 that approximates it; ≥ and ≤ were set here for values at or beyond the usual limits of such assays. The note with it: source organism: Giardia intestinalis.
The target of another experiment is HLA-B*48:01. The experiment is described as above. The note with it: source organism: Giardia intestinalis.
A further experiment addresses HLA-A*31:01. The description is as above. The note with it: source organism: Giardia intestinalis.
The target in another experiment is HLA-B*27:05. The description is as above. The note with it: source organism: Giardia intestinalis.
The target in the next experiment is HLA-A*29:02. The description is as above. The note with it: source organism: Giardia lamblia ATCC 50803.
The mark [5] stands for this setting: source organism: Vibrio vulnificus CMCP6.
The mark [6] stands for this setting: source organism: Dengue virus 2 Jamaica/1409/1983.
The mark [7] stands for this setting: source organism: Francisella tularensis subsp. tularensis.
Setting [8] is: source organism: Campylobacter jejuni.
Where [9] appears, read: source organism: Dengue virus 4 Philippines/H241/1956.
Setting [10] is: source organism: Dengue virus 3 Martinique/1243/1999.
Where [11] appears, read: source organism: Giardia intestinalis.
Where [12] appears, read: source organism: Giardia lamblia ATCC 50803.

Usually Kd stands for the free concentration of one partner at which half of the binding sites on the other are occupied at equilibrium, for simple one-to-one binding.

MPIAAAIGT: the Kd in the experiment with HLA-A*02:16 is no less than 20 µM; with HLA-B*57:01 [1] (setting [5]) it was no less than 20 µM; in the experiment with HLA-A*02:11 (setting [5]), no less than 20 µM; with HLA-B*46:01 (setting [5]) it was no less than 20 µM; in the experiment with HLA-B*35:01 (setting [5]) it was 3 nM; with HLA-A*02:19 (setting [5]), no less than 20 µM. Further, the Kd in the experiment with HLA-A*02:03 (setting [5]) was no less than 20 µM; in the experiment with HLA-A*02:12 (setting [5]) it was no less than 20 µM; in the experiment with HLA-B*15:01 (setting [5]), no less than 20 µM; with HLA-A*24:03 (setting [5]) it was no less than 20 µM; with HLA-B*07:02 (setting [5]), 1 µM; in the experiment with HLA-A*02:01 (setting [5]), no less than 20 µM. Also, the Kd in the experiment with HLA-A*26:01 (setting [5]), with HLA-A*03:01 (setting [5]), in the experiment with HLA-B*18:01 (setting [5]) and with HLA-B*27:03 (setting [5]) was no less than 20 µM in each case.

As to KTRANDWDF, the Kd in the experiment with HLA-B*57:01 [2] (setting [6]) came out at 22.1 nM.

Regarding RYSNFAWYF, the Kd with HLA-A*02:06, in the experiment with HLA-A*68:02 (setting [7]), in the experiment with HLA-B*57:01 [1] (setting [7]), with HLA-B*15:09, with HLA-A*11:01 (setting [7]) and with HLA-A*01:01 (setting [7]) was no less than 20 µM throughout. The Kd was no less than 20 µM with HLA-A*69:01 (setting [7]); no less than 20 µM with HLA-B*15:17 (setting [7]); no less than 20 µM with HLA-B*08:03 (source organism: Francisella tularensis subsp. tularensis FSC033); no less than 20 µM in the experiment with HLA-B*15:01 (setting [7]); 0.365 µM with HLA-A*24:03 (setting [7]); no less than 20 µM with HLA-B*08:02. The Kd with HLA-B*58:01 [3] (setting [7]), in the experiment with HLA-B*07:02 (setting [7]), in the experiment with HLA-A*02:01 (setting [7]) and with HLA-B*18:01 (setting [7]) was no less than 20 µM in each case.

In the case of SFWFFHPPY, the Kd with HLA-A*68:02 (setting [8]) is no less than 20 µM; with HLA-B*57:01 [1] (setting [8]), no less than 20 µM; in the experiment with HLA-A*02:11 (setting [8]), no less than 20 µM; with HLA-B*46:01 (setting [8]), no less than 20 µM; with HLA-B*51:01 (setting [8]), no less than 20 µM; with HLA-B*35:01 (setting [8]) it was 351 nM. In addition, the Kd with HLA-A*69:01 (setting [8]) is no less than 20 µM; with HLA-A*02:19 (setting [8]), no less than 20 µM; with HLA-A*02:03 (setting [8]), no less than 20 µM; in the experiment with HLA-A*02:12 (setting [8]) it was no less than 20 µM; with HLA-B*15:01 (setting [8]), 4.99 µM; with HLA-B*07:02 (setting [8]) it was no less than 20 µM. Besides, the dissociation constant Kd with HLA-A*26:01 (setting [8]), with HLA-A*03:01 (setting [8]), with HLA-B*39:01 (setting [8]) and in the experiment with HLA-B*27:03 (setting [8]) was no less than 20 µM in each case.

As for LSSRATWAKN, the values for the Kd in the experiment with HLA-B*57:01 [2] (setting [9]) and in the experiment with HLA-B*58:01 [4] (setting [9]) were 1880 nM and 156 nM, respectively.

With TASGINMCTL, the Kd with HLA-B*57:01 [2] (setting [10]) amounted to 5590 nM; with HLA-B*58:01 [4] (setting [10]), 103 nM.

Take TTEDMLAVW: in the experiment with HLA-B*57:01 [2] (setting [6]), the Kd came out at 30.1 nM.

For the sequence KAWMVHRQW, the results for the Kd with HLA-B*57:01 [2] (setting [10]) and with HLA-B*58:01 [4] (setting [10]) were 1.27 nM and 1.08 nM, respectively.

With INTLESMMK, the dissociation constant (Kd) was no less than 20 µM in the experiment with HLA-B*40:01; no less than 20 µM with HLA-A*68:02 (setting [11]); no less than 20 µM in the experiment with HLA-B*57:01 [1] (setting [11]); no less than 20 µM with HLA-B*48:01; 12 µM with HLA-A*11:01 (setting [11]); no less than 20 µM with HLA-B*46:01 (setting [11]). Further, the Kd with HLA-A*01:01 (setting [11]), with HLA-B*15:17 (setting [11]), in the experiment with HLA-B*08:03 (setting [12]), with HLA-A*31:01, with HLA-B*15:01 (setting [11]) and with HLA-B*58:01 [3] (setting [11]) was no less than 20 µM each time. Moreover, the Kd in the experiment with HLA-B*07:02 (setting [11]), with HLA-B*27:05, with HLA-A*02:01 (setting [11]), with HLA-A*03:01 (setting [11]) and with HLA-B*18:01 (setting [11]) was no less than 20 µM in each case.

For the sequence LLIQGLKTV, the dissociation constant (Kd) with HLA-B*57:01 [1] (setting [12]), in the experiment with HLA-B*46:01 (setting [12]), with HLA-B*51:01 (setting [12]), in the experiment with HLA-B*15:17 (setting [12]), with HLA-A*24:03 (setting [12]) and in the experiment with HLA-A*29:02 was no less than 20 µM each time. Also, the Kd with HLA-A*02:01 (setting [12]) is 0.002 µM; with HLA-A*26:01 (setting [12]), no less than 20 µM; in the experiment with HLA-A*03:01 (setting [12]) it was no less than 20 µM; with HLA-B*39:01 (setting [12]), no less than 20 µM; with HLA-B*18:01 (setting [12]), no less than 20 µM; with HLA-B*27:03 (setting [12]), no less than 20 µM.

As to PPPPLQHPI, the dissociation constant (Kd) is no less than 20 µM with HLA-B*57:01 [1] (setting [12]); no less than 20 µM with HLA-B*46:01 (setting [12]); no less than 5 µM in the experiment with HLA-B*51:01 (setting [12]); no less than 20 µM in the experiment with HLA-B*15:17 (setting [12]); no less than 20 µM in the experiment with HLA-B*15:01 (setting [12]); no less than 20 µM with HLA-A*24:03 (setting [12]). Besides, the Kd with HLA-A*26:01 (setting [12]), with HLA-A*03:01 (setting [12]), with HLA-B*39:01 (setting [12]), in the experiment with HLA-B*18:01 (setting [12]) and with HLA-B*27:03 (setting [12]) was no less than 20 µM throughout.
